The supplement of paper PMC9732359
± gives the uncertainty stated by the source.

Assay: protein stability index of a GFP-peptide fusion (yeast GPS) (PSI 1-4); higher = more stable; sorted into four equal gates, so the index is relative within each strain
Outline: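 Yeast carrying a pooled library were grown to mid-log phase in leucine-free medium. Each library plasmid expresses Cherry and has a tiled 17-residue yeast protein peptide fused downstream of GFP. Cells were sorted into four equal gates by GFP/Cherry ratio, and plasmids from each gate were PCR-amplified, Illumina-sequenced and assigned to strains by barcode. Summing, across gates, the read frequency times the gate number gave each peptide's protein stability index.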

Row | Sequence | protein stability index (doa10∆) | protein stability index (pdr5∆) | protein stability index (san1∆) | protein stability index (ubr1∆)
1 | PHGISVFLSNLVETCLN [BRR2] | 1.39 ± 0.043 | 1.57 ± 0.035 | 1.48 ± 0.07 | 1.61 ± 0.03
2 | MPGMPNMPGMPKVTPQM [SRP54] | 3.06 ± 0.17 | 3.2 ± 0.21 | 2.65 ± 0.18 | 3.34 ± 0.1
3 | MSEEQDPLLAGLGETSG [RPT4] | 2.91 ± 0.24 | 3.55 ± 0.17 | 3.57 ± 0.17 | 3.25 ± 0.15
4 | VDDSMELCGQIRSERFK [ITC1] | 2.84 ± 0.072 | 3 ± 0.067 | 3.28 ± 0.086 | 2.94 ± 0.13
5 | AIANTLLYLRLKNIYVS [PRP8] | 1.38 ± 0.048 | 1.53 ± 0.05 | 1.38 ± 0.084 | 1.18 ± 0.045
6 | ELENNEFTENELNVDSM [ITC1] | 3.38 ± 0.07 | 3.21 ± 0.073 | 3.33 ± 0.065 | 3.27 ± 0.069
7 | ADGLLQVLVCTATLAWG [BRR2] |  | 1.77 ± 0.28 | 2.17 ± 0.18 | 2.14 ± 0.25
8 | STGAADGGYNAQLAKAK [SMC2] | 3.31 ± 0.15 | 3.47 ± 0.11 | 3.22 ± 0.084 | 3.3 ± 0.13
9 | YIKNILEAPVKSIENPT [YLR335W/NUP2] | 2.38 ± 0.061 | 2.33 ± 0.063 | 2.19 ± 0.084 | 2.13 ± 0.057
10 | EWKSEFVVPTFGQDVSP [SNM1] | 2.25 ± 0.052 | 2.29 ± 0.055 | 3.04 ± 0.063 | 2.24 ± 0.05
11 | LIENCKKRNMPLQSIPE [SWI1] | 2.86 ± 0.068 | 2.86 ± 0.056 | 3.01 ± 0.051 | 3.05 ± 0.046
12 | VVSTDLESIQKTKEAVA [RPL4A] | 2.95 ± 0.072 | 3.12 ± 0.083 | 2.9 ± 0.08 | 2.82 ± 0.063
13 | IVKASNWRLVEVGRVVL [RPL14A] | 2.8 ± 0.1 | 1.43 ± 0.13 |  | 1.69 ± 0.089
14 | GDSGISPEESKARSPGI [SIR4] | 3.52 ± 0.15 |  |  | 
15 | IRQDVNLGRAVFWEIQS [PRP8] | 3.04 ± 0.069 | 2.86 ± 0.053 | 2.64 ± 0.06 | 2.86 ± 0.04
16 | ELFDILSTSEDVSIEEL [IRR1] | 2.66 ± 0.17 | 2.15 ± 0.2 | 2.6 ± 0.21 | 2 ± 0.13
17 | TSNGLKKNPNWLEEYHP [FAS1] | 3.3 ± 0.17 | 3.22 ± 0.15 | 3.48 ± 0.098 | 3.38 ± 0.11
18 | QLDLCKLYFQLFLNTGC [SRP68] | 2.01 ± 0.038 | 1.4 ± 0.042 | 1.45 ± 0.092 | 1.7 ± 0.037
19 | QWFEAHYGQTLGKKKNV [RPS8A] | 2.556 ± 0.025 | 2.876 ± 0.025 | 2.44 ± 0.027 | 2.647 ± 0.022
20 | TRFKAVVVVGDSNGHVG [RPS2] | 1.87 ± 0.05 | 1.96 ± 0.064 | 1.84 ± 0.11 | 1.99 ± 0.043
21 | IHVLEQDGGIMGSLING [SKI6] | 3.45 ± 0.09 | 3.1 ± 0.1 | 3.36 ± 0.082 | 3.18 ± 0.066
22 | AYGVLDSNYKWDLSVED [PRE2] | 3 ± 0.073 | 2.94 ± 0.083 | 3.26 ± 0.086 | 3.42 ± 0.056
23 | GSGSRLNRLPAASLGDM [RPL23A] | 2.28 ± 0.17 | 2.6 ± 0.18 | 2.66 ± 0.24 | 3.12 ± 0.22
24 | PQDYVLERVKRIMEKSV [YML031W/NDC1] | 2.6 ± 0.059 | 2.66 ± 0.045 | 2.55 ± 0.087 | 2.12 ± 0.041
25 | LFEQLQTVSNKEDAKAT [SRP54] | 3.41 ± 0.14 | 3.04 ± 0.1 | 3.18 ± 0.054 | 3.18 ± 0.059
26 | INSDNQNIILRSTMMKF [RPN3] | 2.82 ± 0.092 | 2.81 ± 0.086 | 2.77 ± 0.11 | 2.9 ± 0.059
